Laboratory results published in patent US20230051701A1 (Bristol-Myers Squibb, published 2023).
Several values for one entry are separate records, joined by “and”; a condition that tells them apart may be missing. Equal entries are not always repeated.

Legend:
[1] = molecular target: T1, human CD73 on cells (Calu6, NCI-H292, SK-MEL-24, human tumor cell lines, human B and T cells) (human, UniProt P21589 27-549); assay: flow cytometry, FITC-mAb, T cells of donor D329
T1 construct: Endogenous protein; also called endogenous CD73; cellular CD73
T1 sequence: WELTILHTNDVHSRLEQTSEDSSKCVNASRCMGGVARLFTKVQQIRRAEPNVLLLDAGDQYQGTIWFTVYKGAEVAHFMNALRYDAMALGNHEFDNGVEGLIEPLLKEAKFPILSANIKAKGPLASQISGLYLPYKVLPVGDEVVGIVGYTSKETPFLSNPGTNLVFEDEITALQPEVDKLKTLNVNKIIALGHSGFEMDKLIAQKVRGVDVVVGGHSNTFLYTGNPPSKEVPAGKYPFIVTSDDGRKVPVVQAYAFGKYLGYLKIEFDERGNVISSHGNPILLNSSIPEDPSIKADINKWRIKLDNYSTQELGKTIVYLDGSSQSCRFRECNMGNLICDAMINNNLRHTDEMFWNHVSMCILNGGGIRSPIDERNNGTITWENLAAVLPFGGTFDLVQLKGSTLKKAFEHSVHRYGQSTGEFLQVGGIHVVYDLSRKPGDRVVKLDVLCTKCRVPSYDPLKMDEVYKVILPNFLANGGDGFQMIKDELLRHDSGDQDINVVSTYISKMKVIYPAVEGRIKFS
Protocol: (§1) Binding of CD73.4 antibody to human B and T cells was also determined. Human blood from two donors, D316 and D329, was obtained from Immunsciences, BMS. Peripheral blood mononuclear cells (PBMC) were isolated with Lympholyte-H cell separation gradient media. […] Cells from both donors were pooled for the unstained and FMO (Fluorescence minus one) control samples.

[2] = molecular target: T1, human CD73 on cells (Calu6, NCI-H292, …); assay: cell-based or functional assay
[3] = molecular target: T1, human CD73 on cells (Calu6, NCI-H292, …); assay: flow cytometry, FITC-mAb, T cells of donor D316
Protocol: as §1

[4] = molecular target: T1, human CD73 on cells (Calu6, NCI-H292, …); assay: flow cytometry, FITC-mAb, B cells of donor D316
Protocol: as §1

[5] = molecular target: T1, human CD73 on cells (Calu6, NCI-H292, …); assay: flow cytometry, FITC-mAb, B cells of donor D329
Protocol: as §1

[6] = molecular target: T1, human CD73 on cells (Calu6, NCI-H292, …); assay: cell-based or functional assay; remark: listed apart in the source
[7] = molecular target: T2, N-terminal domain of hCD73 (residues 26-336 of human CD73), His-tagged (human, UniProt P21589 26-336); assay: SPR, comparison of all IgG2 molecules
T2 construct: also called N-hCD73; N-hCD73-his
T2 sequence: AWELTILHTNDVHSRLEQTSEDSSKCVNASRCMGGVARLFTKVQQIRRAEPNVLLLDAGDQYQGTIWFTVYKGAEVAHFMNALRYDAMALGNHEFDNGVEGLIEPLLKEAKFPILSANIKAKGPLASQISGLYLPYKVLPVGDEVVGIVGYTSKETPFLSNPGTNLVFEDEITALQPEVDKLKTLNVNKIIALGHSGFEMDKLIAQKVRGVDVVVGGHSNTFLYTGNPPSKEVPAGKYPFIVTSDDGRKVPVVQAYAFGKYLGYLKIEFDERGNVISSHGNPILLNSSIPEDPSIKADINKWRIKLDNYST
Protocol: For these experiments, protein A (Pierce) was immobilized to a density of 3000 — 4000 RU on flow cells 1-4 of a CM5 sensor chip (GE Healthcare) using standard ethyl(dimethylaminopropyl) carbodiimide (EDC)/N-hydroxysuccinimide (NHS) chemistry, with ethanolamine blocking, in a running buffer of 0.01 M HEPES pH 7.4, 0.15 M NaCl, 3 mM EDTA, 0.005% v/v tween 20. […] The running buffer for the kinetic experiments was 10 mM sodium phosphate, 130 mM sodium chloride, 0.05% tween 20, pH 7.1. The surfaces were regenerated after each cycle using two 30 s pulses of 10 mM glycine pH 1.5 at a flow rate of 30 μl/min. Sensogram data was double-referenced and then fitted to a 1:1 Langmuir model using Biacore T100 evaluation software v2.0.4, to determine the association rate constant (ka), the dissociation rate constant (kd), and the equilibrium dissociation constant (KD).

B1: CD73.4-IgG2-C219S (antibody)
heavy: QVQLVESGGGVVQPGRSLRLSCAASGFTFSNYGMHWVRQAPGKGLEWVAVILYDGSNKYYPDSVKGRFTISRDNSKNTLYLQMNSLRAEDTAVYYCARGGSSWYPDSFDIWGQGTMVTVSSASTKGPSVFPLAPCSRSTSESTAALGCLVKDYFPEPVTVSWNSGALTSGVHTFPAVLQSSGLYSLSSVVTVPSSNFGTQTYTCNVDHKPSNTKVDKTVERKSCVECPPCPAPPVAGPSVFLFPPKPKDTLMISRTPEVTCVVVDVSHEDPEVQFNWYVDGVEVHNAKTKPREEQFNSTFRVVSVLTVVHQDWLNGKEYKCKVSNKGLPAPIEKTISKTKGQPREPQVYTLPPSREEMTKNQVSLTCLVKGFYPSDIAVEWESNGQPENNYKTTPPMLDSDGSFFLYSKLTVDKSRWQQGNVFSCSVMHEALHNHYTQKSLSLSPG
light: not shown
notes: also called CD73.4-IgG2CS; CD73.4-IgG2.3
IC50 [1]: 0.135 nM
CD73 Inhibition EC50(nM), cAMP assay, Calu6 [2]: 1.56 nM and 1.78 nM
IC50 [3]: 0.18 nM
IC50 [4]: 0.159 nM
IC50 [5]: 0.0777 nM

B2: CD73.10-IgG2-C219S (antibody)
heavy: QVQLVESGGGVVQPGRSLRLSCAASGFTFSNYGMHWVRQAPGKGLEWVAVIWYDESNKYYPDSVKGRFTISRDNSKNTLYLQMNSLRAEDTAVYYCARGGSSWYPDSFDIWGQGTMVTVSSASTKGPSVFPLAPCSRSTSESTAALGCLVKDYFPEPVTVSWNSGALTSGVHTFPAVLQSSGLYSLSSVVTVPSSNFGTQTYTCNVDHKPSNTKVDKTVERKSCVECPPCPAPPVAGPSVFLFPPKPKDTLMISRTPEVTCVVVDVSHEDPEVQFNWYVDGVEVHNAKTKPREEQFNSTFRVVSVLTVVHQDWLNGKEYKCKVSNKGLPAPIEKTISKTKGQPREPQVYTLPPSREEMTKNQVSLTCLVKGFYPSDIAVEWESNGQPENNYKTTPPMLDSDGSFFLYSKLTVDKSRWQQGNVFSCSVMHEALHNHYTQKSLSLSPG
light: not shown
notes: also called CD73.10-IgG2CS; CD73.10-IgG2S
EC50 (nM), CD73 internalization, Calu6, 2 h [6]: 0.67 nM
Ymax, CD73 internalization, Calu6, 2 h [6]: 99 % of 100 nM 11F11
fold lower affinity than 11F11 or CD73.4 [7]: ~10 fold

B3: CD73.4-IgG2-C219S-IgG1.1f (antibody)
heavy: QVQLVESGGGVVQPGRSLRLSCAASGFTFSNYGMHWVRQAPGKGLEWVAVILYDGSNKYYPDSVKGRFTISRDNSKNTLYLQMNSLRAEDTAVYYCARGGSSWYPDSFDIWGQGTMVTVSSASTKGPSVFPLAPCSRSTSESTAALGCLVKDYFPEPVTVSWNSGALTSGVHTFPAVLQSSGLYSLSSVVTVPSSNFGTQTYTCNVDHKPSNTKVDKTVERKSCVECPPCPAPPVAGPSVFLFPPKPKDTLMISRTPEVTCVVVDVSHEDPEVKFNWYVDGVEVHNAKTKPREEQYNSTYRVVSVLTVLHQDWLNGKEYKCKVSNKALPSSIEKTISKAKGQPREPQVYTLPPSREEMTKNQVSLTCLVKGFYPSDIAVEWESNGQPENNYKTTPPVLDSDGSFFLYSKLTVDKSRWQQGNVFSCSVMHEALHNHYTQKSLSLSPG
light: not shown
modifications: 94% of the N-terminal glutamine was pyro-Q; 97% of the heavy chains lacked the C-terminal lysine
notes: also called CD73.4-IgG2CS-IgG1.1f
IC50 [1]: 0.241 nM
CD73 Inhibition EC50(nM), cAMP assay, Calu6 [2]: 1.28 nM
CD73 Inhibition S:B, cAMP assay, Calu6 [2]: 12
IC50 [3]: 0.183 nM
IC50 [4]: 0.165 nM
IC50 [5]: 0.145 nM
EC50 (nM), CD73 internalization, Calu6, 2 h [6]: 1.2 nM
Ymax, CD73 internalization, Calu6, 2 h [6]: 97 % of 100 nM 11F11

B4: CD73.10-IgG2-C219S-IgG1.1f (antibody)
heavy: QVQLVESGGGVVQPGRSLRLSCAASGFTFSNYGMHWVRQAPGKGLEWVAVIWYDESNKYYPDSVKGRFTISRDNSKNTLYLQMNSLRAEDTAVYYCARGGSSWYPDSFDIWGQGTMVTVSSASTKGPSVFPLAPCSRSTSESTAALGCLVKDYFPEPVTVSWNSGALTSGVHTFPAVLQSSGLYSLSSVVTVPSSNFGTQTYTCNVDHKPSNTKVDKTVERKSCVECPPCPAPPVAGPSVFLFPPKPKDTLMISRTPEVTCVVVDVSHEDPEVKFNWYVDGVEVHNAKTKPREEQYNSTYRVVSVLTVLHQDWLNGKEYKCKVSNKALPSSIEKTISKAKGQPREPQVYTLPPSREEMTKNQVSLTCLVKGFYPSDIAVEWESNGQPENNYKTTPPVLDSDGSFFLYSKLTVDKSRWQQGNVFSCSVMHEALHNHYTQKSLSLSPG
light: not shown
notes: also called CD73.10-IgG2CS-IgG1.1f; CD73.10-IgG2S-IgG1.1f
EC50 (nM), CD73 internalization, Calu6, 2 h [6]: 0.87 nM
Ymax, CD73 internalization, Calu6, 2 h [6]: 99 % of 100 nM 11F11
